System: Escherichia coli TOP10
Assay: shrunken log2 fold change of peptide-encoding DNA abundance (4.5 h post-induction vs induction); higher = less antimicrobial activity (less host growth inhibition)
Settings: time post-induction: 4.5 h; library: site-saturation at positions 5, 18, 19, 20
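Also: peptides expressed intracellularly from a pBAD plasmid library in pooled LB shake-flask culture, induced with 0.3% L-arabinose, DNA abundance read by NGS, three biological replicates, DESeq2 with apeglm shrinkage.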

RRIRYRPPRLPRPRPRPTEQPRP
shrunken log2 fold change: -0.0161

RRIRYRPPRLPRPRPRPTHCPRP
shrunken log2 fold change: 0.0602

RRIRYRPPRLPRPRPRPTIDPRP
shrunken log2 fold change: -0.271

RRIRYRPPRLPRPRPRPTIEPRP
shrunken log2 fold change: -0.391

RRIRYRPPRLPRPRPRPTISPRP
shrunken log2 fold change: -0.893

RRIRYRPPRLPRPRPRPTLPPRP
shrunken log2 fold change: -0.135

RRIRYRPPRLPRPRPRPTMWPRP
shrunken log2 fold change: 0.0172

RRIRYRPPRLPRPRPRPTNFPRP
shrunken log2 fold change: -0.16

RRIRYRPPRLPRPRPRPTQYPRP
shrunken log2 fold change: -0.531

RRIRYRPPRLPRPRPRPTSIPRP
shrunken log2 fold change: -0.656

RRIRYRPPRLPRPRPRPTSRPRP
shrunken log2 fold change: -0.0257

RRIRYRPPRLPRPRPRPTYEPRP
shrunken log2 fold change: 4.06

RRIRYRPPRLPRPRPRPTYVPRP
shrunken log2 fold change: -0.0567

RRIRYRPPRLPRPRPRPTYWPRP
shrunken log2 fold change: -0.318

RRIRYRPPRLPRPRPRPVADPRP
shrunken log2 fold change: -0.127

RRIRYRPPRLPRPRPRPVAIPRP
shrunken log2 fold change: -0.702

RRIRYRPPRLPRPRPRPVDIPRP
shrunken log2 fold change: -0.00973

RRIRYRPPRLPRPRPRPVDNPRP
shrunken log2 fold change: -0.0156

RRIRYRPPRLPRPRPRPVFRPRP
shrunken log2 fold change: -0.258

RRIRYRPPRLPRPRPRPVFSPRP
shrunken log2 fold change: -0.303

RRIRYRPPRLPRPRPRPVGPPRP
shrunken log2 fold change: -0.328

RRIRYRPPRLPRPRPRPVGTPRP
shrunken log2 fold change: 0.238

RRIRYRPPRLPRPRPRPVITPRP
shrunken log2 fold change: -0.241

RRIRYRPPRLPRPRPRPVKNPRP
shrunken log2 fold change: -0.381

RRIRYRPPRLPRPRPRPVLAPRP
shrunken log2 fold change: -0.037

RRIRYRPPRLPRPRPRPVLSPRP
shrunken log2 fold change: -0.311

RRIRYRPPRLPRPRPRPVLYPRP
shrunken log2 fold change: -0.0955

RRIRYRPPRLPRPRPRPVMIPRP
shrunken log2 fold change: -0.596

RRIRYRPPRLPRPRPRPVMMPRP
shrunken log2 fold change: -0.891

RRIRYRPPRLPRPRPRPVNEPRP
shrunken log2 fold change: -0.109

RRIRYRPPRLPRPRPRPVPHPRP
shrunken log2 fold change: -0.262

RRIRYRPPRLPRPRPRPVPLPRP
shrunken log2 fold change: -0.17

RRIRYRPPRLPRPRPRPVRAPRP
shrunken log2 fold change: 0.774

RRIRYRPPRLPRPRPRPVRPPRP
shrunken log2 fold change: 0.924

RRIRYRPPRLPRPRPRPVSFPRP
shrunken log2 fold change: -0.717

RRIRYRPPRLPRPRPRPVSPPRP
shrunken log2 fold change: -0.449

RRIRYRPPRLPRPRPRPVTHPRP
shrunken log2 fold change: 0.00542

RRIRYRPPRLPRPRPRPVVMPRP
shrunken log2 fold change: 0.00213

RRIRYRPPRLPRPRPRPVWIPRP
shrunken log2 fold change: -1.23

RRIRYRPPRLPRPRPRPWCPPRP
shrunken log2 fold change: -0.28

RRIRYRPPRLPRPRPRPWFRPRP
shrunken log2 fold change: -0.567

RRIRYRPPRLPRPRPRPWGCPRP
shrunken log2 fold change: -0.404

RRIRYRPPRLPRPRPRPWGRPRP
shrunken log2 fold change: -0.186

RRIRYRPPRLPRPRPRPWIEPRP
shrunken log2 fold change: -0.866

RRIRYRPPRLPRPRPRPWILPRP
shrunken log2 fold change: -0.482

RRIRYRPPRLPRPRPRPWKQPRP
shrunken log2 fold change: -0.0389

RRIRYRPPRLPRPRPRPWNRPRP
shrunken log2 fold change: -0.0135

RRIRYRPPRLPRPRPRPWPWPRP
shrunken log2 fold change: 0.0314

RRIRYRPPRLPRPRPRPWQLPRP
shrunken log2 fold change: -0.647

RRIRYRPPRLPRPRPRPWSCPRP
shrunken log2 fold change: -0.171

RRIRYRPPRLPRPRPRPWSEPRP
shrunken log2 fold change: -0.117

RRIRYRPPRLPRPRPRPWTDPRP
shrunken log2 fold change: -0.038

RRIRYRPPRLPRPRPRPWVGPRP
shrunken log2 fold change: -0.352

RRIRYRPPRLPRPRPRPWVHPRP
shrunken log2 fold change: -0.701

RRIRYRPPRLPRPRPRPWVVPRP
shrunken log2 fold change: -0.264

RRIRYRPPRLPRPRPRPWWRPRP
shrunken log2 fold change: -0.0462

RRIRYRPPRLPRPRPRPWYKPRP
shrunken log2 fold change: -0.0225

RRIRYRPPRLPRPRPRPWYQPRP
shrunken log2 fold change: -3.18

RRIRYRPPRLPRPRPRPYAIPRP
shrunken log2 fold change: -0.00088

RRIRYRPPRLPRPRPRPYATPRP
shrunken log2 fold change: -0.175

RRIRYRPPRLPRPRPRPYEMPRP
shrunken log2 fold change: -0.104

RRIRYRPPRLPRPRPRPYENPRP
shrunken log2 fold change: 0.0075

RRIRYRPPRLPRPRPRPYEYPRP
shrunken log2 fold change: -0.095

RRIRYRPPRLPRPRPRPYFGPRP
shrunken log2 fold change: 0.0143

RRIRYRPPRLPRPRPRPYFLPRP
shrunken log2 fold change: -1.23

RRIRYRPPRLPRPRPRPYGKPRP
shrunken log2 fold change: -1.27

RRIRYRPPRLPRPRPRPYIDPRP
shrunken log2 fold change: -0.103

RRIRYRPPRLPRPRPRPYIHPRP
shrunken log2 fold change: -1.31

RRIRYRPPRLPRPRPRPYINPRP
shrunken log2 fold change: -1.69

RRIRYRPPRLPRPRPRPYKCPRP
shrunken log2 fold change: -0.175

RRIRYRPPRLPRPRPRPYKRPRP
shrunken log2 fold change: -2.31

RRIRYRPPRLPRPRPRPYKSPRP
shrunken log2 fold change: 0.0233

RRIRYRPPRLPRPRPRPYNLPRP
shrunken log2 fold change: 0.00739

RRIRYRPPRLPRPRPRPYPGPRP
shrunken log2 fold change: -0.379

RRIRYRPPRLPRPRPRPYPLPRP
shrunken log2 fold change: -0.146

RRIRYRPPRLPRPRPRPYPTPRP
shrunken log2 fold change: -0.282

RRIRYRPPRLPRPRPRPYRFPRP
shrunken log2 fold change: -0.168

RRIRYRPPRLPRPRPRPYRRPRP
shrunken log2 fold change: -0.00141

RRIRYRPPRLPRPRPRPYRWPRP
shrunken log2 fold change: -0.175

RRIRYRPPRLPRPRPRPYWVPRP
shrunken log2 fold change: -0.538

RRIRYRPPRLPRPRPRPYYDPRP
shrunken log2 fold change: -0.15

Source: the supplement of paper PMC9112550, “Optimization of the antimicrobial peptide Bac7 by deep mutational scanning” (BMC Biology, 2022)
